# Earlier results in publication PMC3179904.
# Target: CheA (Escherichia coli) (UniProt P07363)
# Sequence of UniProt P07363 (P07363 whole entry): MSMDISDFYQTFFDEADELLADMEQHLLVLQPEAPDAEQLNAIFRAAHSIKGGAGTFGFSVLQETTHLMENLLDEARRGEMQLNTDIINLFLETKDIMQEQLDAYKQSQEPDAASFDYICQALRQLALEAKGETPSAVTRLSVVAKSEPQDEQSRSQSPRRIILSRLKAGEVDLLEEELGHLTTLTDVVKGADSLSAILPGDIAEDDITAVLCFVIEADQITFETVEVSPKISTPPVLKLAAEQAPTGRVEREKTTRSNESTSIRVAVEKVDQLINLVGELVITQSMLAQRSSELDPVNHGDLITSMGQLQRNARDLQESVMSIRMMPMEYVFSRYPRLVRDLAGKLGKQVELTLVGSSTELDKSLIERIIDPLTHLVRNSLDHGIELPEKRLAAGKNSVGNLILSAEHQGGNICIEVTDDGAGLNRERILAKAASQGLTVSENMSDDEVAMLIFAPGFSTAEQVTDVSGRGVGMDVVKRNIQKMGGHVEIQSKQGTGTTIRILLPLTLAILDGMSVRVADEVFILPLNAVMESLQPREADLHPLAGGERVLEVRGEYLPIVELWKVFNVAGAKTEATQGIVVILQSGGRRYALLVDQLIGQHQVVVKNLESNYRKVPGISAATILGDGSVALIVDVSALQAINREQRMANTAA
substance,measurement,value
CheW (from UniProt P0A964),Kd,17 µM
